The test system of this experiment is IL-8. Description: LPS stimulated IL-8 ELISA in U937 macrophages, PAAG and lactoferrin. It is filed as cell-based, human. The conditions noted are these: 100 ng/ml lactoferrin pretreatment 1 hour, LPS stimulation; at 24 hours; FIG. 31. For orientation: ELISA stands for enzyme-linked immunosorbent assay.

B1: lactoferrin: Lactoferrin, comparator pretreatment at 100 ng/ml (protein, UniProt P02788 20-710, looked up)
Lactotransferrin: GRRRSVQWCAVSQPEATKCFQWQRNMRKVRGPPVSCIKRDSPIQCIQAIAENRADAVTLDGGFIYEAGLAPYKLRPVAAEVYGTERQPRTHYYAVAVVKKGGSFQLNELQGLKSCHTGLRRTAGWNVPIGTLRPFLNWTGPPEPIEAAVARFFSASCVPGADKGQFPNLCRLCAGTGENKCAFSSQEPYFSYSGAFKCLRDGAGDVAFIRESTVFEDLSDEAERDEYELLCPDNTRKPVDKFKDCHLARVPSHAVVARSVNGKEDAIWNLLRQAQEKFGKDKSPKFQLFGSPSGQKDLLFKDSAIGFSRVPPRIDSGLYLGSGYFTAIQNLRKSEEEVAARRARVVWCAVGEQELRKCNQWSGLSEGSVTCSSASTTEDCIALVLKGEADAMSLDGGYVYTAGKCGLVPVLAENYKSQQSSDPDPNCVDRPVEGYLAVAVVRRSDTSLTWNSVKGKKSCHTAVDRTAGWNIPMGLLFNQTGSCKFDEYFSQSCAPGSDPRSNLCALCIGDEQGENKCVPNSNERYYGYTGAFRCLAENAGDVAFVKDVTVLQNTDGNNNEAWAKDLKLADFALLCLDGKRKPVTEARSCHLAMAPNHAVVSRMDKVERLKQVLLHQQAKFGRNGSDCPDKFCLFQSETKNLLFNDNTECLARLHGKTTYEKYLGPQYVAGITNLKKCSTSPLLEACEFLRK
For the molecule B1, the IL-8 secretion suppression result was “IL-8 secretion suppression”.
